From publication PMC12756002, “Mutations in Hsp40 co-chaperone change the canonical interdomain interactions stimulating LGMDD1 myopathy” (The Journal of Biological Chemistry, 2025)

B1: Ssa1-WT (natural protein)
chain: not shown
notes: Ssa1, yeast Hsp70; Cloned into pPROEx-Htb; cleavage of the tag follows from 'the remaining purification steps were analogous to those for Sis1-WT'; also called Hsp70; source: E. coli Rosetta 2(DE3), purified (Talon resin, steps analogous to Sis1)

Experiments:
Details in all cases: both partners purified
[1] = biological target: T1, Sis1-FLRnq1 complex (Sis1-WT premixed with denatured Rnq1) (yeast, UniProt P25294 1-352; P25367 1-405); assay: ELISA; denatured Rnq1 premixed with Sis1-WT or mutants (5 nM), 1 h room temperature, adsorbed onto wells; dilutions of Ssa1-WT (0-20 nM); bound Ssa1 detected with an anti-Ssa1 (Hsp70) antibody
T1 construct: also called Sis1-WT with client protein Rnq1
T1 sequence (looked up) 1: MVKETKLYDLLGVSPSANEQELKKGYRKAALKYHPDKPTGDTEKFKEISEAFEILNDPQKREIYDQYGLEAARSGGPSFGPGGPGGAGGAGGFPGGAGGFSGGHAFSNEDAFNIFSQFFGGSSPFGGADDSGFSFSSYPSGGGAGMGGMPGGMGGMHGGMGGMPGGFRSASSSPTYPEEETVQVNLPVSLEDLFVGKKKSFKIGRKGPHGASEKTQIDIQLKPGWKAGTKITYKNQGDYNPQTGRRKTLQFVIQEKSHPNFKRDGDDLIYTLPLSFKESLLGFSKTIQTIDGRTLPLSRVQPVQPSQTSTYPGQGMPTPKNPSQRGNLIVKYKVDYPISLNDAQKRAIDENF
T1 sequence (looked up) 2: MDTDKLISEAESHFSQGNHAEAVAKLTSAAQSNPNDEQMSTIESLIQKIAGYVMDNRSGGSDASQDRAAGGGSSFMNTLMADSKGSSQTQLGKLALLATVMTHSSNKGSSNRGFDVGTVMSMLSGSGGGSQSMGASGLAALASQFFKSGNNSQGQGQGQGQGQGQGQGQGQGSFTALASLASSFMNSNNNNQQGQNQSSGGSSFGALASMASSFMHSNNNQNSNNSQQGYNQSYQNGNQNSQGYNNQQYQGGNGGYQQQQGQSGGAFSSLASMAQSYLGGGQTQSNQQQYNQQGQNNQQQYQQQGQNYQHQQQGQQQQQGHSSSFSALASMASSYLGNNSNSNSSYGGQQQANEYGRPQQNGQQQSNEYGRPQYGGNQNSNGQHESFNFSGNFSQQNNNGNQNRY

[2] = biological target: T2, Sis1-S49V premixed with denatured Rnq1 (yeast, UniProt P25294 1-352; P25367 1-405, S49V); assay: as above
T2 construct: also called Sis1-FLRnq1 complex (S49V)
T2 sequence (looked up) 1: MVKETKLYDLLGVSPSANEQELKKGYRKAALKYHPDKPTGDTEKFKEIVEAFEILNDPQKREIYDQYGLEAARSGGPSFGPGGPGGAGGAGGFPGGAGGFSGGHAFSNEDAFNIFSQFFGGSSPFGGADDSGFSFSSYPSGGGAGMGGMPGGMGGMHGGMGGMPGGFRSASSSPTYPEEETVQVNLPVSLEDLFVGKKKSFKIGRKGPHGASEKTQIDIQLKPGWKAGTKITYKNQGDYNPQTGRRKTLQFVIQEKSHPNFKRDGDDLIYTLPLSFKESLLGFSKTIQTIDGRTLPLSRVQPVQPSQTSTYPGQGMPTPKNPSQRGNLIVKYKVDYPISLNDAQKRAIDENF
T2 sequence (looked up) 2: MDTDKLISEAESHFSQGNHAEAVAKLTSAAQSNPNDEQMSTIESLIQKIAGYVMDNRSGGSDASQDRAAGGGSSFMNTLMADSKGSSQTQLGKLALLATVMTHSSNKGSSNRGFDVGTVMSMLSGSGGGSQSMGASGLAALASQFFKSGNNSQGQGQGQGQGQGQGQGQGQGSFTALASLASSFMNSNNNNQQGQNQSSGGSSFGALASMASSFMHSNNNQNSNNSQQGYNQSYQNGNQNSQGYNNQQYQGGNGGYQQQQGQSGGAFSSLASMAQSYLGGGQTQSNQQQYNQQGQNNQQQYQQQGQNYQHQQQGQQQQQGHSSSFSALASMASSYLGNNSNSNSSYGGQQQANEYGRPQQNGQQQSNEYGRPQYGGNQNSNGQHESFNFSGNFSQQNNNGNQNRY

[3] = biological target: T3, Sis1-E53A premixed with denatured Rnq1 (yeast, UniProt P25294 1-352; P25367 1-405, E53A); assay: as above
T3 construct: also called Sis1-FLRnq1 complex (E53A)
T3 sequence (looked up) 1: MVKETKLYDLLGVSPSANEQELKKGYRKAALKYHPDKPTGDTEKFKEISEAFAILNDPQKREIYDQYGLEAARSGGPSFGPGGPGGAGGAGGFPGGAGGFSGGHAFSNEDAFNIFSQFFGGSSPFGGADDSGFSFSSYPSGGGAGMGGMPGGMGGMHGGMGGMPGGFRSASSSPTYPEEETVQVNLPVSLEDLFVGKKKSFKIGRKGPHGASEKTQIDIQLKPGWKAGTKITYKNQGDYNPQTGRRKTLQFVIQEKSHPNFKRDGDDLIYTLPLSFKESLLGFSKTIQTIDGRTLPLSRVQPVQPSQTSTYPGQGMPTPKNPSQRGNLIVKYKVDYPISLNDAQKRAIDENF
T3 sequence (looked up) 2: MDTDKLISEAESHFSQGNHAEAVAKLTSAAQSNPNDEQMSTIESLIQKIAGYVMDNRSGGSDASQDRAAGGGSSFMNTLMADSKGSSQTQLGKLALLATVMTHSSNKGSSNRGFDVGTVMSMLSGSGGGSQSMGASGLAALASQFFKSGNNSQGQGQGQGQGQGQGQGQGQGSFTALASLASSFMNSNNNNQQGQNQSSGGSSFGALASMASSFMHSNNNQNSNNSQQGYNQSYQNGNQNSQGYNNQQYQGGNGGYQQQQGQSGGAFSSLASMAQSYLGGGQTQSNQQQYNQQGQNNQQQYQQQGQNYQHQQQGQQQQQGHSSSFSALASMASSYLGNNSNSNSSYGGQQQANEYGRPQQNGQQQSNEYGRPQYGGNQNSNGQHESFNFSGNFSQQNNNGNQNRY

[4] = biological target: T4, Sis1-E53K premixed with denatured Rnq1 (yeast, UniProt P25294 1-352; P25367 1-405, E53K); assay: as above
T4 construct: also called Sis1-FLRnq1 complex (E53K)
T4 sequence (looked up) 1: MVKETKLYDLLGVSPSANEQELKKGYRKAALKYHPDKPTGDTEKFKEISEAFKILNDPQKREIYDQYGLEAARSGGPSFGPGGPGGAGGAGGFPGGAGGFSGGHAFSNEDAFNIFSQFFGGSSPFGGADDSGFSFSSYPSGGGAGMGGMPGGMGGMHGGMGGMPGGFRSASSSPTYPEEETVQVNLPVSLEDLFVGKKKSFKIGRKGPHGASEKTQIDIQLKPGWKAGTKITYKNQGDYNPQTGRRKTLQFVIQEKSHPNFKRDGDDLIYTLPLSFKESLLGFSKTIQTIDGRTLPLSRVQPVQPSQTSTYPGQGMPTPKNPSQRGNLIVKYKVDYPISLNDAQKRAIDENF
T4 sequence (looked up) 2: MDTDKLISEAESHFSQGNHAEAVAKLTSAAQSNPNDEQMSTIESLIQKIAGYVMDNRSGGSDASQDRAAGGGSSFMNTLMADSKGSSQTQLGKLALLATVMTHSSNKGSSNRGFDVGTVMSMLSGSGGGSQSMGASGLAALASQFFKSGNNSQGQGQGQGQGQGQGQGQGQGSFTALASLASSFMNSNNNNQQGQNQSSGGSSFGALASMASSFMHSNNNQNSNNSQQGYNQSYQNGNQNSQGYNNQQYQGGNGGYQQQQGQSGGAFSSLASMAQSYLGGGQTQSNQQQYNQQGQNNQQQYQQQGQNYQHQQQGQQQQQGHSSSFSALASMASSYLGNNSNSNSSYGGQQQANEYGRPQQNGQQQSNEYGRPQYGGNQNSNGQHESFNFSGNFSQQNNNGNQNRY

[5] = biological target: T5, Sis1-N56L premixed with denatured Rnq1 (yeast, UniProt P25294 1-352; P25367 1-405, N56L); assay: as above
T5 construct: also called Sis1-FLRnq1 complex (N56L)
T5 sequence (looked up) 1: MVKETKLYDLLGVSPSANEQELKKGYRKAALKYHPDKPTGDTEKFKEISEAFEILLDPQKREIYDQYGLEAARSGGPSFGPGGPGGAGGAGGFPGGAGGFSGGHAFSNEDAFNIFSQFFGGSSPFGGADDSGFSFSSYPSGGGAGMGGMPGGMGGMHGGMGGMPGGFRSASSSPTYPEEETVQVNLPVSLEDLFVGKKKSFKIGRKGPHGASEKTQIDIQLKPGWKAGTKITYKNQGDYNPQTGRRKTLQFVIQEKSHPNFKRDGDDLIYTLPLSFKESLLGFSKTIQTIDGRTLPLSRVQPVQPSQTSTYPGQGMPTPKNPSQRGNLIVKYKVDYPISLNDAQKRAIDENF
T5 sequence (looked up) 2: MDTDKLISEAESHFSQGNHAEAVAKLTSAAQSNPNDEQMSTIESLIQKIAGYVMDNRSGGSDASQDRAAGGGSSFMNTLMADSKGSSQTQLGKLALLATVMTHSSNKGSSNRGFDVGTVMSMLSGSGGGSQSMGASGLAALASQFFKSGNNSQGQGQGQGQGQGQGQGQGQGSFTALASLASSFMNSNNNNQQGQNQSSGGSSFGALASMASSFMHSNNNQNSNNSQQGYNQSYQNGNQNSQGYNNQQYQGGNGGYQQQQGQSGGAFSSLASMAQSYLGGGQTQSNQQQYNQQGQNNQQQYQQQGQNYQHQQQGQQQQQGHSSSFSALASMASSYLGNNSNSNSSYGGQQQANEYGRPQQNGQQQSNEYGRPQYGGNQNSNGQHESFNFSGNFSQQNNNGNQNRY

Ssa1-WT = biological target: B1; assay: ELISA; Ssa1 (200 nM) immobilised in microtiter wells; dilutions of Sis1-WT or mutants (0-50 nM); bound Sis1 detected with an anti-Sis1 antibody; no client
Sequence of Ssa1-WT (P10591 whole entry): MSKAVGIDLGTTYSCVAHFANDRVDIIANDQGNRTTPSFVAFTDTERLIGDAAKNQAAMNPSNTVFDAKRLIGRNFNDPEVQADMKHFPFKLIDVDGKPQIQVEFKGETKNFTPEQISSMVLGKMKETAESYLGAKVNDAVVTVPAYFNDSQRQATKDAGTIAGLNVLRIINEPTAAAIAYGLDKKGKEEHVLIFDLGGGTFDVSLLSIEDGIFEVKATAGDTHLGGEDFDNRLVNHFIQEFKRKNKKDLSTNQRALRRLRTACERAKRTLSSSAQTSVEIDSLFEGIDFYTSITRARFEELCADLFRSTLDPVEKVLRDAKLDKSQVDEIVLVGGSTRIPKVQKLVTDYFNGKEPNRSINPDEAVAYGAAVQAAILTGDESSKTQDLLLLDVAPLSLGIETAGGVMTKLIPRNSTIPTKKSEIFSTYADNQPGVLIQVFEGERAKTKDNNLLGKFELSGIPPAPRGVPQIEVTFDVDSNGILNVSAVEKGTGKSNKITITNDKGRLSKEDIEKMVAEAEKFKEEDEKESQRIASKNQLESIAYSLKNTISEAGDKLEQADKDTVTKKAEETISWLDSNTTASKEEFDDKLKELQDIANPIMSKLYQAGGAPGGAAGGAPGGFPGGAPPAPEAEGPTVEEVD

full-length Rnq1 = biological target: T6, full-length Rnq1 (yeast, UniProt P25367 1-405); assay: ELISA; denatured substrate (FL Rnq1 or ΔN Rnq1 400 ng, luciferase 100 ng) immobilised in microtiter wells; dilutions of Sis1-WT or mutants (0-20 or 0-25 nM) in PBS-T with 0.5% BSA, overnight at room temperature; retained Sis1 detected with an anti-Sis1 antibody
T6 construct: also called FL Rnq1; Rnq1-WT
T6 sequence (looked up): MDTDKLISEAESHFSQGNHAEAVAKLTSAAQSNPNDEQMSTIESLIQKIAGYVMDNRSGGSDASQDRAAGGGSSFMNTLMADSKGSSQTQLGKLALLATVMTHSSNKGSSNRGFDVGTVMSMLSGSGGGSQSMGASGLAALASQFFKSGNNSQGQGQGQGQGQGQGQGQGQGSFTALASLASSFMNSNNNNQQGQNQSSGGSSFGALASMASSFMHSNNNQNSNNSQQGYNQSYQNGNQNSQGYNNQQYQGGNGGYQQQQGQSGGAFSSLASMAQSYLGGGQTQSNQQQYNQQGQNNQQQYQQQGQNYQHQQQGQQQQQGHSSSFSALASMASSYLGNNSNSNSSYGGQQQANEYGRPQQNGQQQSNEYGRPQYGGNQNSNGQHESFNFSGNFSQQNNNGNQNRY

Measured: binding result

B1
not listed: Ssa1-WT | full-length Rnq1
binds: all other assays above

B2: Sis1-WT (natural protein, yeast, UniProt P25294 1-352, looked up)
chain: MVKETKLYDLLGVSPSANEQELKKGYRKAALKYHPDKPTGDTEKFKEISEAFEILNDPQKREIYDQYGLEAARSGGPSFGPGGPGGAGGAGGFPGGAGGFSGGHAFSNEDAFNIFSQFFGGSSPFGGADDSGFSFSSYPSGGGAGMGGMPGGMGGMHGGMGGMPGGFRSASSSPTYPEEETVQVNLPVSLEDLFVGKKKSFKIGRKGPHGASEKTQIDIQLKPGWKAGTKITYKNQGDYNPQTGRRKTLQFVIQEKSHPNFKRDGDDLIYTLPLSFKESLLGFSKTIQTIDGRTLPLSRVQPVQPSQTSTYPGQGMPTPKNPSQRGNLIVKYKVDYPISLNDAQKRAIDENF
notes: Sis1, essential yeast DNAJ (Hsp40) protein, homolog of human DNAJB6; Cloned into pPROEx-Htb (hexa-His-tag, TEV site); also called Hsp40; wild-type Sis1; source: E. coli Lemo21(DE3), purified (Talon cobalt resin, TEV cleavage, second Talon pass)
binds: Ssa1-WT | full-length Rnq1

B3: Sis1-E53A (natural protein, yeast, UniProt P25294 1-352, looked up)
chain: MVKETKLYDLLGVSPSANEQELKKGYRKAALKYHPDKPTGDTEKFKEISEAFAILNDPQKREIYDQYGLEAARSGGPSFGPGGPGGAGGAGGFPGGAGGFSGGHAFSNEDAFNIFSQFFGGSSPFGGADDSGFSFSSYPSGGGAGMGGMPGGMGGMHGGMGGMPGGFRSASSSPTYPEEETVQVNLPVSLEDLFVGKKKSFKIGRKGPHGASEKTQIDIQLKPGWKAGTKITYKNQGDYNPQTGRRKTLQFVIQEKSHPNFKRDGDDLIYTLPLSFKESLLGFSKTIQTIDGRTLPLSRVQPVQPSQTSTYPGQGMPTPKNPSQRGNLIVKYKVDYPISLNDAQKRAIDENF
notes: Sis1, essential yeast DNAJ (Hsp40) protein, with the J-domain mutation E53A; also called homologous to DNAJB6-E54A; LGMDD1 J-domain mutant; source: E. coli Lemo21(DE3), purified (Talon cobalt resin, TEV cleavage, second Talon pass)
binds: Ssa1-WT | full-length Rnq1
